Experimental findings from publication PMC4942342 are described below.

The experiment has as its target sHRPb-NLG (evolved sHRPb fused to neuroligin) (horseradish | not stated). Put plainly: split reporter.

As for “sHRPa-NRX (evolved sHRPa fused to neurexin)”, the signal to noise ratio (fluorescence intensity relative to background) lay within 1.5 to 13.4.
